Test results taken from patent publication US20100197582A1.

Target: human GHR stably expressed in human 293 cells (human) (UniProt P10912)
Test: cell-based or functional assay

UniProt P10912, sequence (P10912 19-638): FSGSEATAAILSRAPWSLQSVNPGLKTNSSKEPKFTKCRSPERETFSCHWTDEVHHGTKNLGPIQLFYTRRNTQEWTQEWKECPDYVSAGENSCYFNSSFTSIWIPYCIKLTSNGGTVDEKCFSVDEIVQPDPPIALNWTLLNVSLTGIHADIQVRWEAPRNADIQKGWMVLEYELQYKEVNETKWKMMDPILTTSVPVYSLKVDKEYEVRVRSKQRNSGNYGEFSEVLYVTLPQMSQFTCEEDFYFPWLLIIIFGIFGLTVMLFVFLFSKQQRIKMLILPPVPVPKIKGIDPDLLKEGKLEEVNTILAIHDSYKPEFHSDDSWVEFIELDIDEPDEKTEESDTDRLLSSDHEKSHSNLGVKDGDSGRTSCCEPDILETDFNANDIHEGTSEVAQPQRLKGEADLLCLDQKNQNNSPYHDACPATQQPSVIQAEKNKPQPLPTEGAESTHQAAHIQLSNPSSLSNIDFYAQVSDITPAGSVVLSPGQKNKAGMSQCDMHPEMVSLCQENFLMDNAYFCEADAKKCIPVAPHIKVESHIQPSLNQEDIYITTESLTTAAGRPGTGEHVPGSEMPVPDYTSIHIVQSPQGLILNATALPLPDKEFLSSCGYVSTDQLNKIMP

What does the source list for “LR-fusion (human GH linked to the A & B domains of the GHR extracellular domain, exGHR1-238, via a (Gly4Ser)4 linker) (from UniProt P01241 27-217; P10912 1-238)”?
bioactivity in GH-specific luciferase reporter assay (Stat 5 luciferase reporter), relative to GH: 10%; concentration giving maximal response, Stat 5 luciferase-reporter assay: 50 to 250 nM
